These results are taken from the DeepSol protein solubility set.

The nature of this data set: soluble on expression in E. coli; label from the status in PepcDB or PDB records.
On to “MLFLFVDGLGLGGALEDLFPFLLALAPTPLDATLGVEGLPQSGTGQTALLTGENAARLLGHHQGPFPSPRLRPLLAQGLYAWAKGKGLRVLHANGYRPDYLRRATEGKRLLLSAFAQAARLAGIPLLPLGHPLALLPGFWEDPYGAGAKAAALARAFDLVVLEYWALDLAAHRHPESLPDRFRELTLFLQGFLAEGGVLLLASDHGNAEEPWHPRHTLNPVPLVYTEEAPPPPEDLTGVFPWLRTIITSKTNKSDRNT”, for which the “soluble on expression in E. coli” value is “soluble”.

Consider “MSLEQNFIRLYQDSFREHWALPALTNYDTKESYTYGEMAADIARRHLLFERIGLKPGDKVALLGKDSAEWCMAFMSVITYGAIIVPVLPDFNAADAASIVTHSDAKYLFVSDKIWETMDPSQLLLLCGAVSIRDYTVFLDRTEGGLLSQEVEGLSRSFSEHYPSGFTAEDIRYAEVSNDDLILLNYTSGTTGFSKGVMLRANNLAGNVTYVKDRDIMFRGETILCFLPLAHTYSCAFNFLTPLTIGVHVYILGKIPSPLTLIKAFADVRPSFVIMVPLIIEKLYHKAIAPKIKTPLIKFLLRLPVLKKVIHKSIRSKLIESFGGNFRQIIIGGAALNDEVAHFLYRIGFPLTVGYGMTECGPLISYEDHSLWLPGSCGKSLSIMEVRIDHSGQERHSDSGDVGEIQVRGENVCLGYYKNAELTAELFTPDGWMRTGDLGTIDSLGNIFIKGRSKTMLLGSNGQNIYPEEIESKINNLSYVLESIVTERDGRLIALIVPDRQAIEHKGISPDQAWAYIERSRAELNGQVGAYEKITAFVRHDEEFEKTPKHSIKRFLYTEGHHHHHH”, for which the “soluble on expression in E. coli” value is reported as “soluble”.

Regarding “MEVKEVELELSSEATFLSKTSIGEITAGEKGLNPMELLLVSIGSCSGVDVYHILKKKRQEVKDIKIFLKGKRREKHPKIYEEIEIKYVAVGKVEEKALEQAVKLSTEKYCSVLAMVKPSTNLKISWEVKWEE”, the “soluble on expression in E. coli” value was “soluble”.

For the sequence “MGSDKIHHHHHHMMTMRIAMISIHTSPLQQPGSGDAGGMNVYIISIARELARRGVDVDIYTRATRPSQGDVVEVESGLRVINIVAGPYEGLSKEELPTQLAAFAGGVVQFAKCHHMRYDVIHSHYWLSGQVGWLLRDLWNIPLVHTAHTLAAVKNAHRSAGDTEESEARRICEQQLVDNADILVVNTPEETNDLVRHYDANPDSVAVIAPGANVELFTPGTQRNTEQSRRCLGIPLHTKVMAFVGRLQQFKGPEVLLRAVAEMLERDPDRDMRVIMCGGPSGAAATVEHYIELTRSLGIAHRVRFLDPRPPEELVSVYQAADVVAVPSYNESFGLVAMEAQASGTPVVAARVGGLPIAVVDGETGVLVDGHDPIMWADALEQLLDDDPTRQQMGVAAVEHAANFTWAAAAEKLESVYGDAAMLDVAQCHDRYAAGSDRA”, the “soluble on expression in E. coli” value is listed as “not soluble”.

Turning to “MKIIKRNGSEAVFDISKIMMAVSRANEVVQANQKLSKAQINAIAAQVEEVCSTRPHAMNVEEIQDLVENQIMEQQAFEVARKYITYRYIRTLKRSSN”, the “soluble on expression in E. coli” value is on record as “not soluble”.

Turning to “MPLTLNQLAELSGRASEHVLAEEVEETGTPAEEILARLRERLAVMRDSVRRGLASDAPSVAGLVGKNAKTLWEAPDPLQDPLLKRVQAYAMAVNEENARMGRIVAAPTAGSAGTLPGALLGVADHLGIPDEELLMPLVLAGGVAKMIGRVIHIAGASGGCQAEIGSSAAMAAAAVTELLGGTPEACAHAAALALQNTLGLVCDPVGGFVEVPCVMRNGFYAVHAVSAASMALAGIRSVIPPDEVVLAMAGIGRLLPLELKETGLGGLADTPTGRRLAEEALKKT”, the “soluble on expression in E. coli” value is listed as “soluble”.

Take “MNPKFPDSPFLNDLLARLGEVLRQSPAQDFERNLKAGVTSMLTKLDLVSREEFDVQAAVLARTREKLGQLEARLADLEKHERQADEG”: the “soluble on expression in E. coli” value is “not soluble”.

On to “LTLKNPIMVVGLPGVGLVGKLVAEHLVDELAAERIMEVYSPHFPPQVLVNKDCTVRPVSNTIYLGKANETDVLFLVGDHQSTTAQGHYELCSLYLDIAEELKVPRIYTLGGYPTGKLTYEDTVLGVANSTELIEEIKQYGVEFRESEPSGGIVGASGLLVAFSGMRGIDAACLMGMTPGYLMDPKSAQSLLKVLCNIFGIEVNTDSLKKKAEEMENILEKLKEKEEQQNLPEVKPTEEDLRYIG”, for which the “soluble on expression in E. coli” value is given as “not soluble”.

Take “MAHHHHHHMRSNGAAHIGNNTFLAVTRDVTDTAFLFSSSFSPAEQLVRLPLSRKTRFLPHASLACGEAERSEYAESAARAGPPTKDVDVKEAVASAAAASTPLFCHSAHASPDGHKIAFISNVRRHHYIIDISVLPAAVCELEMPEVVQSVCWHTVAHHALCVLFISGDLTIYDTDQSYLGVIVPLYRRIALRPVIERRLADAEAAVHPSPSIPSTAPGTISPAKGATALDKEEVQSTRVKALAGKVSTTRLPPARQAHATTAEVAGFRSLVLHSGGGAIVAGSDIAHSPSYAVAERIDHDEMVPVSSADEVGAEGAASCPPIPKPVMLPTSQLDLVDMYALPPTESIPVILLLSSSGDVYAVHLGDDCLPVVATAAATDDGRVRTREEEVLRRAEVAAAPLSVEVYHLISGDSTGAAGDEAVAVGGCLVDEDAGTHAVFFLTANGLVKGAWVSKPDLLARHRVAHVRAVGSPNISFTLHLSGSLGARASLAPAVPSITHSVSMTLSQNVCVVRSGVAGETAFVMAFPRWDRRRQGWACWRPACADAREREREAAALPLLSTDAAPPSPVALRLPYDTRDSSIAVGCTELLLVPEVSTMDGLCERGSILVISLAAVLRSALYARCGKLGLHPSAGAGATSRLRDPHPAVLDLLNAVPECHRCWLRGVPEAEMSAATLNLVRRIEQLSGDVNRREMVQAQRRRRLVARVANLEGRVAEMDGMLAEWRQIILDGIVHRRGGDAFRTANARLRKVSTMLNELEQQL”: the “soluble on expression in E. coli” value is reported as “not soluble”.

In the case of “WNIHGKESCDVQLYIKRQSEHSILAGDPFELECPVKYCANRPHVTWCKLNGTTCVKLEDRQTSWKEEKNISFFILHFEPVLPNDNGSYRCSANFQSNLIESHSTTLYVTDVKHHHHHHHH”, the “soluble on expression in E. coli” value is “soluble”.

With “GPGSMLGWSGTRFAAALHLRSVCSPRSAAAQGSHARAPRALSSSSSFVALFGSARGFSGTARRFSGTFHYRKVRLTPEDALDPLTKPTNIDKAALHVVSVPIGNLKDFSLRALDVLRGVDYIITTDRPATKTLLDLVNIPNQGRLIHYSRGNRSTSREKLVELLKGGRSMALVTTSGTPCIGDVGGELVQELQKSGIRVTAVPGASALMSALAISGLTTSAYESAKNDKRGADAAADGEAGLSPQTFEDGSFFFGNVLPKSHGARLRILRTIVAPATFPCVFYEVPYRLVMVLQDIASVLPHRFVYVTHELTKLNESLHADTAERLVGFYLRQEAQMLVKKGQLVLVIAGAGPKETAAWLEKEAAKRRRLRRTVSDLMKDAPPAASSHLESAPGTGGTTAAASSSRESSVTTAKEERRQRRKQRAELRRLRQRKKRERLIRAIESEQERLRVILSINRNDASRLM”, the “soluble on expression in E. coli” value is “not soluble”.

With “PLPIPPPPPDIQPLERYWAAHQQLRETDIPQLSQASRLSTQQVLDWFDSRLPQPAEV”, the “soluble on expression in E. coli” value was “soluble”.

In the case of “MGSDKIHHHHHHSDIASSVNGGSNRLADGGDFELGMSVYGINQIDVRQTGSGTAQLSLLVSGMYQYKGMFVEMIHQSQDGVNLGVNLWSSEDWSFDLLLANLQGSWSRPDLDPSTLDEAGRNAYLLSEDSLYIGAGFRATRYWGDNYVFQYRLVSDYYDDQGIQSSARLGKSWQVRNWNFHVLGSVGYSSATLNRYLFGVSKEEATELFPEYHPSSSFSYGMELGVAYPLSESFVFRAMYRFNVLSKEVTDSPFNQAGYASFFNASISYVF”, the “soluble on expression in E. coli” value is listed as “not soluble”.

Consider “MWLIILWNAKPDTPLFNFKDEVIKYKTYEPFESSIKRVNTTIKNGSKGKTLTEMINGYRADNDIRDEICNFNILKNKIRDMKNQQGNTMESYF”, for which the “soluble on expression in E. coli” value is “not soluble”.

On to “MGSDKIHHHHHHMESITLTADLDALAKTSAFITAAAERCGLDERATWQVQLAVDEAVTNVIQHAYDPDQPGDFTLSWQCHDQRFIVTVRDHGRQFDPSTVPVPDITSPLEERQVGGLGIYLITRLMDEVHFEFSPQGGNLLTMVKYLPSDQAEEANEVVVIPINDRIDALTAPRLSKTVNEQISQGARQIVLDFSNVPFLSSSGLRALLLIRKELMTLGGELRLAALQPQVHEVFTITGFTQVFNIHPSVTEARAAFSQRR”, for which the “soluble on expression in E. coli” value was “not soluble”.

For “MGSDKIHHHHHHMRLPPIDLSRENTFGEISYESGGQYGPIRGDYLAFIIVHLGTLKIEADETVLQLEAGHCALSLTRDSYLTTIAPETLTHISWCDGRPLNAAWLYKERHKYAPFINASTQVQTLMQLGVDLGIGDRDGRGGLREALTNTLLNAYIYEAEVVAEERPIPQTILQARRFLDENFAADVSIERVAQQVRVSPQYLVSAFKKHLGMTPARYLWRCRLDYGAHLLQRSGLSVSEIAYQVGYKNPYHFSRQIKLAFDCSPTELREKMLNG”, the “soluble on expression in E. coli” value was “not soluble”.

With “MGSDKIHHHHHHMASPTVRRRQLSAILREMRKASGLSLDAVAARLEWSRAKVGHIETGQRKKPSVLEVKALMAEYGVTPEDPRYETVLMLTRQAQARGWWRRYDDLFPGSYIELEAEASEIRTYEAFVVPGLLQTPGYTRLLQQARLDRDPDDVERAVESRRKRQEIFDRTSPPAVYAIIEEHALERLRGTPDVLAEQVAHLLHMAGRNSVTLQVLRTRVGVHAGAMGPFVILDFPEPASPVVYLETYTDGLFLERREEIDQYRSLWDRIRDAALPPDRTVEFLRSLLTL”, the “soluble on expression in E. coli” value is reported as “not soluble”.

Regarding “MSYRMFDYLVPNVNFFGPNAISVVGERCQLLGGKKALLVTDKGLRAIKDGAVDKTLHYLREAGIEVAIFDGVEPNPKDTNVRDGLAVFRREQCDIIVTVGGGSPHDCGKGIGIAATHEGDLYQYAGIETLTNPLPPIVAVNTTAGTASEVTRHCVLTNTETKVKFVIVSWRNLPSVSINDPLLMIGKPAALTAATGMDALTHAVEAYISKDANPVTDAAAMQAIRLIARNLRQAVALGSNLQAREYMAYASLLAGMAFNNANLGYVHAMAHQLGGLYDMPHGVANAVLLPHVARYNLIANPEKFADIAELMGENITGLSTLDAAEKAIAAITRLSMDIGIPQHLRDLGVKETDFPYMAEMALKDGNAFSNPRKGNEQEIAAIFRQAF”, the “soluble on expression in E. coli” value was “soluble”.

As for “MVAKIKKFSDSTLSVLNNGERRFYVYCLTDLKKDKILYIGKGCGNRIFEHEWVASRSQDPVSGEIIDRKLKAISKCKKLGRYIISYHLTEVEALAAESALIHFVKSVLGKKLKNKIAGHGPGGISVEELDRRFGFSSLPLNEINPDGLILAIKIHNAFDLDTDEELDYLFDNQDDANLKSRTLGNWVIGKDVASKVKYVIGVHTGLQNAVVSAYEVDGFETMVEETKNGRKQSRYRFRTTSRSEEVLAKLGLQQKCLPELKFGSGGEKAYIRPKTETETEQENIQTTPNPKIKKEKTKSLEHHHHHH”, the “soluble on expression in E. coli” value is recorded as “soluble”.

As for “MQEIIASVDHIKFDLEIAVEQQLGAQPLPFPGMDKSGAAVCEFFLKAACGKGGMCPFRHISGEKTVVCKHWLRGLCKKGDQCEFLHEYDMTKMPECYFYSKFGECSNKECPFLHIDPESKIKDCPWYDRGFCKHGPLCRHRHTRRVICVNYLVGFCPEGPSCKFMHPRFELPMGTTEQPPLPQQTQPPAKQRTPQVIGVMQSQNSSAGNRGPRPLEQVTCYKCGEKGHYANRCTKGHLAFLSGQ”, the “soluble on expression in E. coli” value is given as “soluble”.

“MVWFFEYYDGCGLAIKVKKKLYEAEGVQKVEIYETESMGKMLVIDGKIQLTELDEPFYHEMLVHVPMLSHENPRKVAVIGGGDGGALREVLKHNVERAVLVDIDRNVIDLSRKFLKIDHGAFEDERVEIAIMDGKEFLRDCEIFDVIIVDSTDPVGVSDTLFDREFFELARQKCDVISLQSQSPLIQKEYFRTLLVNSAPFERRDVYLSCVPTYPLALWSFIIGGEYDFSNLEERFERIKGKTVHYNPDVHRAAFALPEWLKKEVEACILEHHHHHH”: the “soluble on expression in E. coli” value is “soluble”.
